Measurements from patent US10323078B2, “Isolated peptides and fragments thereof from fibrinogen for use as drugs, particularly in skin inflammatory diseases” (Universite Paris Descartes, priority 2015, dated 2019).

Legend:
Pfg [1] = test: Binding of biotinylated Pfg to immobilized fibrinogen (polystyrene plate); parameters: species or system Propionibacterium acnes; conditions: various quantities of fibrinogen immobilized; biotinylated Pfg 0.1 μg/ml, 2 h at 23° C.
Description: FIG. 5: Binding of P. acnes surface proteins to fibrinogen. (A) Various quantities of human fibrinogen (hFg) and bovine fibrinogen (bFg) were immobilized onto a 96-well polystyrene plate at 4° C. for 18 h and incubated with biotinylated Pfg at 0.1 μg/ml for 2 h at 23° C. Bovine serum albumin (BSA) was used as negative control. Bound material was detected by using the HRP-streptavidin conjugate. Peroxidase activity was measured by using the ABTS substrate at 405 nm. Proteins (10 μg per lane) were separated by 10% SDS-PAGE and detected by (B) Commassie blue staining, and transferred to nitrocellulose membrane and incubated with (C) HRP-streptavidine alone, and (D) biotinylated Pfg (0.1 μg/ml). Lanes 1: molecular weight standards. Lane 2: BSA. […]
To characterize the interaction between P. acnes and ligands, we used biotinylated molecules in quantitative and qualitative assays. […] For quantitative analysis, unlabeled protein were diluted into 50 mM carbonate-bicarbonate, pH 9.6 buffer to yield a protein concentration ranging from 0.01 to 50 μg/ml, and then immobilized to 96-well polystyrene plates at 4° C. overnight. […] After washing, bound peroxidase was detected using the chromogenic peroxidase substrate ABTS. […] Binding activity was detected by incubating the membranes with 20 ml of PBT containing biotinylated proteins (0.1 μg/ml) for 2 h at room temperature followed by three washes with PBT. […]

Pfg [2] = test: Western ligand blot with biotinylated Pfg; type: binding, Propionibacterium acnes; conditions: 10 μg per lane, 10% SDS-PAGE; biotinylated Pfg 0.1 μg/ml
Description: FIG. 5: Binding of P. acnes surface proteins to fibrinogen. (A) Various quantities of human fibrinogen (hFg) and bovine fibrinogen (bFg) were immobilized onto a 96-well polystyrene plate at 4° C. for 18 h and incubated with biotinylated Pfg at 0.1 μg/ml for 2 h at 23° C. Bovine serum albumin (BSA) was used as negative control. Bound material was detected by using the HRP-streptavidin conjugate. Peroxidase activity was measured by using the ABTS substrate at 405 nm. Proteins (10 μg per lane) were separated by 10% SDS-PAGE and detected by (B) Commassie blue staining, and transferred to nitrocellulose membrane and incubated with (C) HRP-streptavidine alone, and (D) biotinylated Pfg (0.1 μg/ml). Lanes 1: molecular weight standards. Lane 2: BSA. Lane 3: hFg. Lane 4: bFg.
FIG. 8: Cloning of Bß human fibrinogen fragments and binding with Pfg. (A) Cloning and expression of recombinant human Bß fibrinogen fragments Fg1, Fg2, Fg3 and Fg4. Fibrinogen fragments were obtained by RT-PCR and expression plasmids were constructed as described in Materials and Methods. (B) GST-fused proteins were expressed in E. coli, fractionated by 12.5% SDS-PAGE, and detected by Coomassie blue staining (B), and incubated with biotinylated Pfg (0.1 μg/ml) as described in Materials and Methods (C).
To characterize the interaction between P. acnes and ligands, we used biotinylated molecules in quantitative and qualitative assays. In a first set of assays, ECM ligands (fibrinogen, collagens I, IV, VI and VIII) were used as labelled proteins with biotin. In a second set of assays, P. acnes surface proteins (total extract and purified Pfg) were biotinylated. For quantitative analysis, unlabeled protein were diluted into 50 mM carbonate-bicarbonate, pH 9.6 buffer to yield a protein concentration ranging from 0.01 to 50 μg/ml, and then immobilized to 96-well polystyrene plates at 4° C. overnight. The wells were rinsed three times with 0.2 ml of PBS containing 0.05% Tween-20 (PBS-Tween). Biotinylated proteins (0.01 to 16 μg/ml in PBS-Tween) were added to the wells and incubated at room temperature for 1 h. The wells were rinsed three times with 0.2 ml of PBS-Tween. Peroxidase conjugated to streptavidin (0.5 μg/ml in PBS-Tween) was added and incubated for 30 min at room temperature. After washing, bound peroxidase was detected using the chromogenic peroxidase substrate ABTS. For qualitative analysis, unlabelled protein (10-75 μg per lane) were separated by SDS-PAGE and then transferred to nitrocellulose membranes (0.45 μm pore size), as described previously (Towbin, 1979). Membranes were then saturated overnight at 4° C. in PBS containing 5% BSA, 0.05% Tween-20 (PBT buffer). Binding activity was detected by incubating the membranes with 20 ml of PBT containing biotinylated proteins (0.1 μg/ml) for 2 h at room temperature followed by three washes with PBT. Bound biotinylated proteins were detected by incubating the membrane with peroxidase conjugated to streptavidin (0.5 μg/ml in PBT) for 1 h at room temperature. After washing, bound peroxidase activity was detected using 3,3′-diaminobenzidine in the presence of CoCl2 and H2O2 (Harlow and Lane, 1988).
Since it was shown that Pfg is recognized by fibrinogen, this ECM ligand was used to analyze the nature of this interaction. First it was analyzed the ability of fibrinogen to be recognized by purified Pfg (FIG. 5). Human and bovine Fg (hFg, bFg) were immobilized to polysterene plate and the binding activity of biotinylated Pfg was measured. […] It has been shown that fibrinogen is a glycoprotein containing both N- and O-linked glycans (Debeire 1985; Reid Townsend 1982; L'Hôte 1996). […] In parallel, deglycosylation was assessed by visualization of a shift in the mobility after electrophoresis separation and Coomassie blue staining (FIG. 6A, lanes 3 and 5) and also by using the RCA-I plant lectin able to recognize ß-linked galactosyl residues in terminal position (FIG. 6C) (Green, 1987). […]

P. acnes 6919 strain = test: Adhesion assay, biotinylated P. acnes binding to HaCaT keratinocytes; type: cell-based, Propionibacterium acnes; conditions: P. acnes 6919 pre-treated with whole fibrinogen 0.01 to 0.5 mM, 1 h at 37° C.
Description: FIG. 12: Dose-dependent inhibition of P. acnes binding to keratinocytes. Biotinylated P. acnes 6919 strain at concentrations adjusted to 0.1 of absorbance at 600 nm was pre-treated with whole human (dark gray bar) and bovine (light gray bar) fibrinogen at the concentrations ranging from 0.01 to 0.5 mM and incubated 1 h at 37° C. with the human HaCaT keratinocyte cell line. After removal of unbound bacteria, adhesion activity was detected at 410 nm. Data are means±S.D. of three separate experiments. Statistical significance is indicated by * (P<0.05), ** (P<0.01), *** (P<0.001), and **** (P<0.0001), respectively.
The bacterial suspension was adjusted at 600 nm to the desired concentration, pretreated with peptides Fg1 and Fg2 at the final concentration ranging from 0.87 to 7 μM for 1 h at 37° C. and deposited on the previously saturated cells with a solution of PBS SVF 2% for 2 h. After incubation for 1 h at 37° C., unbound bacteria are removed by 3 washes with PBS and fixed bacteria are detected by a streptavidin-peroxidase solution of 0.5 μg/ml for 30 min.
Whole P. acnes bacteria are labelled by biotinylation, pre-treated or not with the peptides and contacted with the various cell lines. After removal of the unfixed bacteria, the adhesion activity was measured spectrophotometrically by using the streptavidin-peroxidase conjugate and a chromogenic substrate. […]

B1: bovine fibrinogen: purified commercial bovine fibrinogen (Sigma) (protein)
chain 1: EDGSDPPSGDFLTEGGGVRGPRLVERQQSACKETGWPFCSDEDWNTKCPSGCRMKGLIDEVDQDFTSRINKLRDSLFNYQKNSKDSNTLTKNIVELMRGDFAKANNNDNTFKQISEDLRSRIEILRRKVIEQVQRIKVLQKNVRDQLVDMKRLEVDIDIKIRSCKGSCSRALEHKVDLEDYKNQQKQLEQVIAINLLPSRDIQYLPLIKMSTITGPVPREFKSQLQEAPLEWKALLEMQQTKMVLETFGGDGHARGDSVSQGTGLAPGSPRKPGTSSIGNVNPGSYGPGSSGTWNPGRPEPGSAGTWNPGRPEPGSAGTWNPGRPEPGSAGTWNPGRPEPGSAGTWNPGRPEPGSAGTWNTGSSGSSSFRPDSSGHGNIRPSSPDWGTFREEGSVSSGTKQEFHTGKLVTTKGDKELLIDNEKVTSGHTTTTRRSCSKVITKTVTNADGRTETTKEVVKSEDGSDCGDADFDWHHTFPSRGNLDDFFHRDKDDFFTRSSHEFDGRTGLAPEFAALGESGSSSSKTSTHSKQFVSSSTTVNRGGSAIESKHFKMEDEAESLEDLGFKGAHGTQKGHTKARPARGIHTSPLGEPSLTP
chain 2: QFPTDYDEGQDDRPKVGLGARGHRPYDKKKEEAPSLRPVPPPISGGGYRARPATATVGQKKVERKPPDADGCLHADPDLGVLCPTGCKLQDTLVRQERPIRKSIEDLRNTVDSVSRTSSSTFQYITLLKNMWKGRQNQVQDNENVVNEYSSHLEKHQLYIDETVKNNIPTKLRVLRSILENLRSKIQKLESDVSTQMEYCRTPCTVTCNIPVVSGKECEKIIRNEGETSEMYLIQPEDSSKPYRVYCDMKTEKGGWTVIQNRQDGSVDFGRKWDPYKQGFGNIATNAEGKKYCGVPGEYWLGNDRISQLTNMGPTKLLIEMEDWKGDKVTALYEGFTVQNEANKYQLSVSKYKGTAGNALIEGASQLVGENRTMTIHNSMFFSTYDRDNDGWKTTDPRKQCSKEDGGGWWYNRCHAANPNGRYYWGGAYTWDMAKHGTDDGVVWMNWQGSWYSMKKMSMKIRPYFPEQ
chain 3: YVATRDNCCILDERFGSYCPTTCGIADFLNNYQTSVDKDLRTLEGILYQVENKTSEARELVKAIQISYNPDQPSKPNNIESATKNSKSMMEEIMKYETLISTHESTIRFLQEVYNSNSQKIVNLRDKVVQLEANCQEPCQDTVKIHDVTGRDCQDVANKGAKESGLYFIRPLKAKQFLVYCEIDGSGNGWTVFQKRLDGSLDFKKNWIQYKEGFGHLSPTGTGNTEFWLGNEKIHLISTQSSIPYVLRIQLEDWNGRTSTADYASFKVTGENDKYRLTYAYFIGGDAGDAFDGYDFGDDSSDKFFTSHNGMQFSTWDSDNDKYDGNCAEQVGIGWWMNKCHAGHLNGVYYQGGTYSKTSTPNGYDNGIIWATWKSRWYSMKKTTMKIIPLNRLAIGEGQQHQLGGAKQVGVEHHVEIEYD
Binding of biotinylated Pfg to immobilized fibrinogen (Pfg [1]): dose-dependent | Recognition by biotinylated Pfg after electrophoretic separation of fibrinogen (Pfg [2]): recognized by Pfg | Inhibition of adhesion of P. acnes to keratinocytes (P. acnes 6919 strain): able to inhibit the adhesion
